Assays:
K11 = target: T1, K11 (human); assay: immunoprecipitation from HCT-116 cell extract; quantitative mass spectrometry; pie chart [panel B]
T1 construct: also called K11 chain; K11-linked ubiquitin chain
Text: (§1) FIG. 7 is a view showing the results of quantitative mass spectrometry analysis of immunoprecipitates. […] The immunoprecipitates subjected to FIG. 5C were electrophoresed, and high molecular weight regions (62 kDa or more) were subjected to quantitative mass spectrometry analysis. A stable isotope-labeled ubiquitin-derived peptide (name: EST) as an internal standard and 8 types of ubiquitin chain-derived peptides (names: K6, K11, K27, K29, K33, K48, K63, and M1) were used, and the quantification values (fmol) were described. Since the EST peptide sequence overlaps with the K63 chain peptide sequence, the total ubiquitin value was calculated by adding the value of the K63 chain-derived peptide to the quantitative value of the EST peptide. The total amount of ubiquitin contained in the ubiquitin monobody immunoprecipitates was confirmed to be higher than that of FK2 or P4D1. […] The value of the control is subtracted from the value of each antibody, a total value of the 8 types of ubiquitin chain-derived peptides is set at 100%, and the percentage of each ubiquitin chain is shown as a pie chart.
(§2) The above-described immunoprecipitate was electrophoresed on 4%-12% NuPAGE Bis-Tris gels (Thermo Fisher Scientific) in MES buffer (Thermo Fisher Scientific) for about 2 cm, and was then stained with CBB (Bio-Safe Commassie, Bio-Rad). After the gel was washed with Milli-Q water, a gel of 62 kDa or more was cut out using a molecular weight marker as an indicator, and the gel was cut into 1 mm squares. The gel pieces were collected in an Eppendorf tube and were washed with 50 mM ammonium bicarbonate and 30% acetonitrile (ACN) for 2 hours, and then with 50 mM ammonium bicarbonate and 50% ACN for 1 hour, and were dehydrated in 100% ACN for 15 minutes. Subsequently, a trypsin solution (20 ng/ml Trypsin Gold, Promega, 50 mM ammonium bicarbonate, and 5% ACN) was added to the resultant, which was then digested at 37° C. overnight.

M1 = target: T2, M1 (human); assay: as above
T2 construct: quantified through the peptide GGM[Oxid]QIFVK; also called M1 chain; M1-linked ubiquitin chain
Text: as §1, §2

K27 = target: T3, K27 (human); assay: as above
T3 construct: also called K27 chain; K27-linked ubiquitin chain
Text: as §1, §2

K6 = target: T4, K6 (human); assay: as above
T4 construct: quantified through the peptide M[Oxid]QIFVK[di-GlyGly]TLTGK; also called K6 chain; K6-linked ubiquitin chain
Text: as §1, §2

K63 = target: T5, K63 (human); assay: as above
T5 construct: also called K63 chain; K63-linked ubiquitin chain
Text: as §1, §2

K48 = target: T6, K48 (human); assay: as above
T6 construct: quantified through the peptide LIFAGK[di-GlyGly]QLEDGR; also called K48 chain; K48-linked ubiquitin chain
Text: as §1, §2

K29 = target: T7, K29 (human); assay: as above
T7 construct: quantified through the peptide AK[di-GlyGly]IQDK; also called K29 chain; K29-linked ubiquitin chain
Text: as §1, §2

K33 = target: T8, K33 (human); assay: as above
T8 construct: also called K33 chain; K33-linked ubiquitin chain
Text: as §1, §2

[1] = target: T9, biotinylated ubiquitin (human-derived ubiquitin with C-terminal Cys residue and 6xHis tag, biotin on the Cys) (human, UniProt P0CG48 1-76, biotin tag (EZ-Link Maleimide-PEG11-Biotin) on the added C-terminal Cys residue); assay: BLI; biotinylated ubiquitin on streptavidin sensor, Monobody-Nus-His6 as analyte
T9 construct: mature; Construct pET21a-hUb-Cys-His6; also called hUb-Cys-His6; biotin-labeled ubiquitin monomer

| percentage of this chain among the 8 ubiquitin chain-derived peptides in the immunoprecipitate (control subtracted) (K11) | percentage of this chain among the 8 ubiquitin chain-derived peptides in the immunoprecipitate (control subtracted) (M1) | percentage of this chain among the 8 ubiquitin chain-derived peptides in the immunoprecipitate (control subtracted) (K27) | percentage of this chain among the 8 ubiquitin chain-derived peptides in the immunoprecipitate (control subtracted) (K6) | percentage of this chain among the 8 ubiquitin chain-derived peptides in the immunoprecipitate (control subtracted) (K63) | percentage of this chain among the 8 ubiquitin chain-derived peptides in the immunoprecipitate (control subtracted) (K48) | percentage of this chain among the 8 ubiquitin chain-derived peptides in the immunoprecipitate (control subtracted) (K29) | percentage of this chain among the 8 ubiquitin chain-derived peptides in the immunoprecipitate (control subtracted) (K33) | Kd [1] | Binder |
| --- | --- | --- | --- | --- | --- | --- | --- | --- | --- |
| 6% | 0% | 0% | 4% | 19% | 61% | 10% | 0% | – | Halo tag-fused anti-ubiquitin monobody (His6-Halo tag-TEV recognition sequence-GGGS-monobody, clone C) (designed binder, Immobilized on Magne HaloTag Beads; also called Ub monobody; Halo tag-fused monobody; not shown: Halo tag) HHHHHHGGGSLEVVEASPTSIQISWDAASFGFTHMDKVRYYRITYGETGGNSPVQEFTVPGSKSTATISGLKPGVDYTITVYAVTWYAYSYWGWPPISINYRT |
| – | – | – | – | – | – | – | – | 1.2 nM | anti-ubiquitin monobody clone E, Monobody-Nus tag-His6 recombinant protein (designed binder, Monobody, Nus tag and His6 fused from the N-terminus; also called Ub monobody; not shown: Nus tag for solubilization) LEVVEASPTSIQISWDANIYSVGQGEYVRYYRITYGETGGNSPVQEFTVPGSKSTATISGLKPGVDYTITVYAVTEYSYMYWGWPPISINYRTHHHHHH |
| – | – | – | – | – | – | – | – | 1.1 nM | anti-ubiquitin monobody clone A, Monobody-Nus tag-His6 recombinant protein (designed binder, Fibronectin type III monobody fused from the N-terminus to Nus tag and His6, made in E. coli; also called Ub monobody; not shown: Nus tag for solubilization) LEVVEASPTSIQISWDAYPYYIIGETVRYYRITYGETGGNSPVQEFTVPGSKSTATISGLKPGVDYTITVYAVTYYGNAFWGWPPISINYRTHHHHHH |

Source: patent US20250129143A1 (TOKYO METROPOLITAN INSTITUTE OF MEDICAL SCIENCE, published 2025)
